Experimental data as given in patent US20160152676A1.

Target: gp41 of HIV-1 IIIB virus (HIV-1 IIIB) (UniProt P04578)
Experiment: cell-based or functional assay

Substance: C34-ELMO (from UniProt Q92556 553-675) (designed binder)
- inhibition of HIV-1 infection in cellulo (GFP+ CEM-GFP cells, flow cytometry); concentration at which some inhibition is seen: 250 nM
